In experiment [1] the target is intracellular microtubules (MTs).
Experiment [2] deals with MT-binding domain of ensconsin-cyan fluorescent protein-FKBP-rapamycin binding domain (EMTB-CFP-FRB) (Artificial Sequence). Put plainly: FRET live-cell imaging in co-transfected HeLa cells, 100 nM rapamycin.
The subject of experiment [3] is EMTB-YFP-CIBN-labeled MTs in COS7 cells. Put plainly: Blue-light-induced recruitment of Cry2 proteins onto EMTB-YFP-CIBN-labeled MTs and MT disassembly. The experiment is classed as cell-based, African green monkey. The note with it: COS7 cells. The protocol:
The procedures of photostimulation are as follows. COS7 cells were plated on poly(d-lysine)-coated coverslips and cultured in six-well plates (Thermo Scientific) for 48 hr. Before imaging, cells were incubated with SPY650-tubulin (1000-fold dilution; Spirochrome) at 37° C. for 1 hr. Local photostimulation was carried out with a fluorescence microscope (Nikon) equipped with a digital micromirror device, polygon 400 (MIGHTEX), and a 488-nm light source. Cells were illuminated with the blue light (5 sec on/1 sec off; 1.6 nW/µm^2) for the indicated duration. The mCherry and SPY650-tubulin were simultaneously imaged during photostimulation using Nikon element AR software.
The inventors next tried to use an optogenetic system to trigger MT disassembly in a sub-cellular region of interest during a specific period of time. Cryptochrome 2 (Cry2) (SEQ ID NO:14) and CIBN (N-terminal 170 amino acids of CIB1) (SEQ ID NO:15), two blue light-sensitive dimerizing partners, were used in our MT-manipulating system. Cry2, which was tagged with the red fluorescent protein mCherry (mCh—Cry2), was rapidly translocated onto EMTB—YFP—CIBN-labeled MTs only in regions illuminated with light (T½ = 34.6 ± 7.58 sec) and dissociated from MTs to the cytosol when the light was off (T½ = 28.2 ± 4.88 sec; see FIGS. 6A and 6B).
FIGS. 6A and 6B show using light to disassemble MTs in a reversible and location-specific manner. In FIG. 6A, COS7 cells co-transfected with EMTB—YFP—CIBN and mCh—Cry2 (red) were incubated with SPY650-tubulin (SPY650-tub) to visualize MTs; the cells were illuminated by blue light within a specified region (indicated by the dotted circle) for the indicated time period; scale bar, 10 µm.
The inventors then used light to control spastin-mediated MT disassembly in a spatially and temporally specific manner. dNSpastin3Q tagged with mCh-Cry2 was co-expressed with EMTB—YFP—CIBN in COS7 cells. MTs were labeled with SPY650-tubulin in these experiments.
FIGS. 6C and 6D show using light to disassemble MTs in a reversible and location-specific manner. In FIG. 6C, COS7 cells co-transfected with EMTB-YFP-CIBN and dNSpastin3Q-mCh—Cry2 were incubated with SPY650-tubulin to visualize MTs; the cells were illuminated by blue light as in FIG. 6A; scale bar, 10 µm. […] Data are shown as the mean ± S.E.M.

For experiment [4], the target named is EMTB-YFP-CIBN (Artificial Sequence). Put plainly: live-cell imaging in co-transfected COS7 cells, after blue light.
Experiment [5] shares this target. In words: live-cell imaging in co-transfected COS7 cells, local blue light.
For experiment [6], the target named is T1, spastin (Mus musculus, UniProt Q9QYY8, K308Q/K309Q/K310Q).
T1 construct: expressed in transfected cells; host or cells: HeLa (CCL-2)
T1 sequence (Q9QYY8 with tags, fused parts or gaps K308Q/K309Q/K310Q): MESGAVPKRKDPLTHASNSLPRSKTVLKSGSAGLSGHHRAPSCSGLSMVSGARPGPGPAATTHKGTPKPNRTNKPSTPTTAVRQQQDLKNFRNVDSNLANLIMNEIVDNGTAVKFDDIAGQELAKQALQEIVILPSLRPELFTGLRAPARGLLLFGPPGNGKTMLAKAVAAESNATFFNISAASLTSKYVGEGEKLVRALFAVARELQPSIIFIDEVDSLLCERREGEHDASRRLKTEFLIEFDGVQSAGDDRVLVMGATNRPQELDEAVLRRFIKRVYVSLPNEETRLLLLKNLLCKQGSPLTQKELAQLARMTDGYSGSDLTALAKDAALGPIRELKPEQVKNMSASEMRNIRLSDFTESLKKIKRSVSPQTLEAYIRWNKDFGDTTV
In words: Reversal of MT disruption by spastin inhibition and MT regrowth in HeLa cells. The note with it: regrowth in cytosol (acentrosome) after spastazoline. Type of experiment: cell-based. As for the experimental part:
FIGS. 2S to 2U show inhibition of spastin activity reverses MT disruption. In FIG. 2S, HeLa cells co-transfected with EMTB—CFP—FRB (black) and dNSpastin3Q-YFP-FKBP (green) were pre-treated with rapamycin for 28 min to induce acute MT disassembly; spastazoline (10 µM), a spastin inhibitor, was then added to the cultures to halt the MT disruption system; arrows indicate the centrosome-derived MTs; scale bar, 10 µm. […] Data (red) are shown as the mean ± SD. A Student’s t-test was performed to generate the indicated p-value.
Intriguingly, nascent MTs from the fragments derived from dNspastin3Q-mediated cleavage assembled at a polymerization rate of 0.92 ± 0.04 µm/sec, which was slightly slower than the regrowth rate of 1.17 ± 0.07 µm/sec for MTs from centrosomes (see FIG. 2U). […] In particular, microtubule filaments are composed of microtubule molecules. If they are only disassembled into microtubule molecules and the raw materials are still there, they would have the opportunity to quickly assemble them back. But if the microtubule molecules are degraded and the raw materials are gone, they can’t be quickly reassembled. In summary, rapid recruitment of dNSpastin3Q-YFP-FKBP onto MTs efficiently triggered MT disassembly in living cells upon dimerization induction.

In experiment [7] the test system is ciliary axonemes and primary cilia in NIH3T3 cells. Put plainly: Disruption of primary cilia in serum-starved NIH3T3 cells (live-cell imaging). The experiment is classed as cell-based, mouse. The conditions noted are these: G0 NIH3T3 cells, CFP-FRB-MAP4m, rapamycin 100 nM. As for the experimental part:
The procedures of cell culture and transfection are as follows. African green monkey kidney cell line COS7 (CRL-1651), cervical cancer cell line HeLa (CCL-2), human osteosarcoma cell line U2OS (HTB-96), human embryonic kidney cell line HEK293T (CRL-3216), and mouse embryonic fibroblasts NIH3T3 cells (CRL-1658) were maintained at 37° C., 5% CO2, and 95% humidity in Dulbecco’s modified Eagle’s medium (DMEM) supplemented with 10% fetal bovine serum (FBS), and penicillin and streptomycin (Corning). To induce ciliogenesis, NIH3T3 cells were serum starved for 24 hr. COS7 cells were transfected with plasmid DNAs by using TurboFect transfection reagents (Thermo Fisher). HeLa, U2OS, HEK293T, and NIH3T3 cells were transfected with FuGENE HD (Promega). Transfected cells were incubated for 24-48 hr prior to imaging and other experiments.
The procedures of live-cell imaging are as follows. Live transfected cells cultured on poly(d-lysine)-coated glass coverslips (Hecht Assistent) were treated with either 100 nM rapamycin for rapid induction of protein dimerization and translocation or MT-targeting agents (10 µM nocodazole or 500 µM colchicine) during imaging. Live-cell imaging was conducted on a Nikon T1 inverted fluorescence microscope (Nikon) with a 60× oil objective (Nikon), a Prime camera (Photometrics), and 37° C., 5% CO2 heat stage (Live Cell Instrument). […]

Experiment [8] concerns mitotic spindles and intercellular bridges in HeLa cells. Put plainly: Disruption of mitotic spindles and intercellular bridges in synchronized HeLa cells. Type of experiment: cell-based. The conditions noted are these: CFP-FRB-MAP4m, rapamycin 100 nM. As for the experimental part: The procedures of cell synchronization are as follows. Plasmid DNA (i.e., DNA construct) transfection was carried out 20-24 hr prior to cell cycle synchronization. For synchronization, HeLa cells were treated with 2 mM thymidine (Sigma) for 16-18 hr to induce arrest at G1/S phase and then were treated with 2.5 ng/ml RO3306 (a selective ATP-competitive inhibitor of CDK1)(Sigma) for 12 hr to induce arrest at G2/M phase. After being washed with warm DMEM, cells were incubated with DMEM and 10% FBS at 37° C., 5% CO2 for 30-60 min to enrich the population of metaphase and telophase cells.
FIGS. 5K to 5N show rapid disruption of mitotic spindles and intercellular bridges. In FIG. 5K, HeLa cells co-transfected with H2B—mCherry (H2B—mCh; a chromosome marker; red), CFP—FRB—MAP4m (a marker of mitotic spindles; blue), and dNSpastin3Q-YFP-FKBP (green) were synchronized in metaphase and treated with rapamycin (100 nM) to induce dNSpastin3Q-YFP-FKBP recruitment to mitotic spindles; scale bar, 10 µm. In FIG. 5L, HeLa cells co-transfected with H2B—mCherry (red), CFP—FRB—MAP4m (intercellular bridges; blue), and dNSpastin3Q-YFP-FKBP (green) were treated with rapamycin (100 nM) to induce dNSpastin3Q-YFP-FKBP recruitment to intercellular bridges; arrows indicate the intercellular bridges; scale bar, 10 µm. […] Data are shown as the mean ± S.E.M. Dotted lines indicate the cell boundaries.

For experiment [9], the system named is centrosomes in HeLa cells. Put plainly: Effect of MT disruption treatment on PACT-labeled centrosomes in HeLa cells. Type of experiment: cell-based. The note with it: MT disruption treatment for 1 hr. The protocol:
In FIG. 5O, HeLa cells co-transfected with EMTB—CFP—FRB (blue), dNSpastin3Q-YFP-FKBP (green), and PACT-mCh (a centrosomal marker; red) were treated with rapamycin (100 nM) and imaged; dotted lines indicate the cell boundary; insets show higher-magnification images of the centrosome regions; scale bar, 10 µm. […] Data are shown as the mean ± S.E.M.

Bounds are passed on as bounds.

Chain of EMTB-YFP-CIBN (Artificial Sequence) (chain, as listed by the source): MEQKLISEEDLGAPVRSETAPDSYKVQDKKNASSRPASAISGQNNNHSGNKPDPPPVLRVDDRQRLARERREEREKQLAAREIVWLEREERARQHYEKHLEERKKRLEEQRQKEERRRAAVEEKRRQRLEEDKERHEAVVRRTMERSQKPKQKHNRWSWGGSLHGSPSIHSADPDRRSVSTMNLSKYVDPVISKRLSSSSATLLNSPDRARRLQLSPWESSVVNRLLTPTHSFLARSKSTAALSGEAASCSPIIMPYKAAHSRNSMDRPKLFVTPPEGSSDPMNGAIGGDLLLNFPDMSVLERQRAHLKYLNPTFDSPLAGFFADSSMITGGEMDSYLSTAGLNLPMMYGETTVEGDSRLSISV
Chain of MT-binding domain of ensconsin-cyan fluorescent protein-FKBP-rapamycin binding domain (EMTB-CFP-FRB) (Artificial Sequence) (chain, as listed by the source): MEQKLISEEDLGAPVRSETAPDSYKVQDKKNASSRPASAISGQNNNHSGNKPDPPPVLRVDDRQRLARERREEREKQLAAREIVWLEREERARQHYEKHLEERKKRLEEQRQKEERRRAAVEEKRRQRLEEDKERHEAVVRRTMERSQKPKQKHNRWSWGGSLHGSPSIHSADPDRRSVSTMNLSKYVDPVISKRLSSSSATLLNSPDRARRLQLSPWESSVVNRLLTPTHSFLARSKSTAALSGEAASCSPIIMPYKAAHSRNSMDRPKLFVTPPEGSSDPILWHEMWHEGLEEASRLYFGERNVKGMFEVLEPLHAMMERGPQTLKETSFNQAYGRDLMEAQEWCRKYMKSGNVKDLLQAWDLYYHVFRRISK

Regarding “dNSpastin-YFP-FKBP-C2 domain of Lactadherin (dNSpastin-YFP-FKBP-C2Lact) (enzyme)”, the half time of MT disruption (MT filament area) in [1] came out at 53.1 min. In addition, the T½ of translocation in experiment [2] turned out to be 55.4 s.

B1: Cry2 tagged with the red fluorescent protein mCherry (mCh-Cry2) (protein)
chain: MKMDKKTIVWFRRDLRIEDNPALAAAAHEGSVFPVFIWCPEEEGQFYPGRASRWWMKQSLAHLSQSLKALGSDLTLIKTHNTISAILDCIRVTGATKVVFNHLYDPVSLVRDHTVKEKLVERGISVQSYNGDLLYEPWEIYCEKGKPFTSFNSYWKKCLDMSIESVMLPPPWRLMPITAAAEAIWACSIEELGLENEAEKPSNALLTRAWSPGWSNADKLLNEFIEKQLIDYAKNSKKVVGNSTSLLSPYLHFGEISVRHVFQCARMKQIIWARDKNSEGEESADLFLRGIGLREYSRYICFNFPFTHEQSLLSHLRFFPWDADVDKFKAWRQGRTGYPLVDAGMRELRATGWMHNRIRVIVSSFAVKFLLLPWKWGMKYFWDTLLDADLECDILGWQYISGSIPDGHELDRLDNPALQGAKYDPEGEYIRQWLPELARLPTEWIHHPWDAPLTVLKASGVELGTNYAKPIVDIDTARELLAKAISRTREAQIMIGAA
Take B1: in experiment [3] (blue light on), the “T½ of translocation onto EMTB-YFP-CIBN-labeled MTs in illuminated regions” value was found to be 34.6 ± 7.58 s. In addition, in experiment [3] (light off), the “T½ of dissociation from MTs to the cytosol” value is 28.2 ± 4.88 s. Also, the “light-induced MT disassembly” value in [3] (local blue light illumination, SPY650-tubulin) is reported as “did not lead to MT disassembly”. Also, the T½ of dissociation from MTs when the light was off in experiment [4] stood at 28.2 s. The molecule further showed a T½ of translocation onto MTs under light in experiment [5] of 34.6 s.

B2: dNSpastin3Q: truncated spastin with three residues mutated to three glutamines, SEQ ID NO:6; used as tagged fusions (protein)
chain: T1 sequence (Q9QYY8 with tags, fused parts or gaps K308Q/K309Q/K310Q)
modifications: dNSpastin3Q
notes: used as tagged fusions
As for B2, in experiment [6], the “polymerization rate of nascent MTs from fragments derived from cleavage” value is reported as 0.92 ± 0.04 µm/sec. Moreover, the “time to disassembly of axonemes and primary cilia” value in [7] is given as not above 15 min. The “disruption of mitotic spindles and intercellular bridges” value in experiment [8] is “quickly disrupted these MT-based structures”. Besides, the disruption of centrosomes result in experiment [9] was “did not disrupt centrosomes”.
